Test results reported in a protein production outcome set (Wang et al. 2014).

Assay: label from the status in PepcDB records

Sequence	protein production
MSELQILIFNAAVFSILAVYHYWKNRKLNIAFYILAYYSICAWGALLYHEHELFHYMRGRETYSIIPFLYLIPVIFLFAYPIIRYDNTRITRIETLNSNFFINLVWILLFIQIVLYIILFPSFLKAILSSNIGDYRNDTYDESEIVQFPNYFFNILCRLYMGARNVVILIAAYGLLVIKTHRKLLKIFLVTSLCFPVYMFTAYASRAVMIMTFFFLVFIFVFLSVFMNVGLKKKIVSYLILILVPISSAFILISNSRFGNLATYMFYRYLGESFNNYNTHFFYELKGNTWGEAYFVFFRKLMGISSNFKTTREKWEWLDNITGVDTHVFYTFVGGLNIEFGFVGTIVIGLLLSFFMVKKMRPYNVLTLPKFIALGMLAYTLINGVFFFVLQGDWGNLEILFTLFFCFLFSKYRTRKYINK	failed
MQKKSIYVAYTGGTIGMQRSDNGYIPVSGHLQRQLALMPEFHRPEMPDFTIHEYAPLIDSSDMTPEDWQHIANDIQQNYDLYDGFVILHGTDTMAFTASALSFMLENLAKPVIITGSQIPLAELRSDGQTNLLNALYLAANHPVNEVSLFFNNQLFRGNRTTKAHADGFDAFASPNLSVLLEAGIHIRRQSSVVSPTSNGPLIVHRITPQPIGVVTIYPGISGAVVRNFLLQPVKALILRSYGVGNAPQKAELLDELKNASDRGIVVVNLTQCISGSVNMGGYATGNALAQAGVISGFDMTVEAALTKLHYLLSQSLSPNEIRQLMQQNLRGELTDTQ	not failed
AKDALLLWCQMKTAGYPNVNVHNFTTSWRDGLAFNAIVHKHRPDLLDFESLKKCNAHYNLQNAFNLAEKELGLTKLLDPEDVNVDQPDEKSIITYVATYYHYFSKMKALAVEGK	not failed
MDETPIFKIKKLTIAENDRSEYIRYAEKNMHDSIPAEEGTLLIGSGHDDAHGEDNYEIEVFRNKGAEDLHIAGSHADDFVETVNKIATKQKVIDLHPEVITTKAQRALNSYADNFVMRLIKVEVKDADAEKFSHAVKKEMTTSMASEPGMEIMMSGTNIDNPNEWYFIEVYANDEAYDIHVKTPHYKEYIEETDGMVKSRDVKTLVRDTLATQGAIVLD	not failed
MALLLFFLFIALLGFGILKINNRSILGGITLASGTLLSLVTLLFIGLDKIYLHFKNGDLITLAIAYLLIPAVFIGICLYFIFNSRTMQTKEGKSVTAKLSAGLGLNLLIALPAFLYLLSVGTAQIPYVLFLFLLFLLLMDLLLTFLFAAYVLYSWMYQMIPLKKAVDYIIVLGSGIRSEEVPPLLKSRLDKGIEYYEKNPTAKFVVSGGQGPDEPVAEAFAMKKYLLSQNIPAEAILMEDQSTTTYENMLFSKAIIQADWQKMPSDSKQPSVIFSTNNYHVLRGAMYAHRVGLKAEGVGAPTALYFLPTALIREYIALLVHDKRIVLFVFLLVTLLLGISILPI	failed
MIVLALLGVLLLSVYAYKTKKLTLSGAISAFVVGALISFGLGFKGLLLLAIFFFTSGFWSRFYQERKENEITAKGSTRDGWQVLANGGFAAICALLFSILQDPIYICGFVASLAAANADTWASEVGPLAKRRPIHIIKWKPVDAGTSGAVSAIGTAAAFAGSFIIVVVSIFFWWSSSFASHHLLFSLTLAGFLGNLFDTLVGATGQVLYQCPRCGLETERKIHCNGPTEKKYGLRFLNNDTVNAICTGTGALFGIVAGLILL	failed
SSLRPSPRLLCTATKQKNSGQNLEEDMGQSEQKADPPATEKTLLEEKVKLEEQLKETVEKYKRALADTENLRQRSQKLVEEAKLYGIQAFCKDLLEVADVLEKATQCVPKEEIKDDNPHLKNLYEGLVMTEVQIQKVFTKHGLLKLNPVGAKFDPYEHEALFHTPVEGKEPGTVALVSKVGYKLHGRTLRPALVGVVKEA	failed
MMIIIRVAIMISVVFYLYFIINLLLINHYREPIQSYEKGPTPYELFLVIPVLNEEHVISRTITQLTESLEQLPPTVHAQIIAVDDDSTDHSLLLLTQSSSRFLQILHRTGNQRAGKGAVLNTAVQYIHKTLALKSDPQRTIVGVLDADAFMNTADLTRVLAHFEQEPQLAMIQTSVNIYNQPNWLTKMQNFEFMGVNNATQQLRNRLGQGIASGNGQFVRLDLALQNPWGNSLLEDLEFTLRTWLLGGTRTAFDHTLVVQQEAVEQLRPFFRQRVRWCQGAVQCMRYLPALWRSGRLNHFQKLDTTFWILMPISGCIVPLTSLITLVVLVSRSLQHWQVGWHHLAIGTLLVIAFSACLVLAALYQRNCAVVKQPVGFLDALKQSLTFQAFLLIISLTPYVAIYRQLRGQTGWAKTHHGVTTRVAKYPDTGLKRSY	failed
MRIAILGGGVAGSTLAYLLSRINYEVTIFDINQHYVKPCGDIVPNIYTPPFNWKETFGIRRFSFYIDGEKIYDVEYRHTKWLVIDKWKWINDMRKSSKVIVTHDNNAKEFDYVIDSRGPYPMDREVVYTTRAIIETEEFDDEAILEFNTRYTGFYWIFPSKENEYNIGAGFLEYKNSKELLNYYLRKRFKNFEVKDIRGAPISIGSVKNKKLRIGEARGLVFPLSGEGIRPSAISAEYAFEAIHKEKDLDGFLNEKLSIIEKRIKIQKMLLDLYRYSSLNLRKTFMRIFFKNEVLIDTYLEDKMDLNGIIESLKSVRANGGIIRKFEEQERLEHHHHHH	failed
MEPISARSMISAAATEAVVASGDGAPRVERRKRLSPAALAVANQKVPPAFSPIVIAGSVRLADFLVIAAVGIALYFALVVRRDGFAWEYIAAILGTTATAVVAFQAADLYEVQLFRGTLKQMTRIISTWSIVFLLFIGASFFAKLGGEVSRLWLGSFFFAGLALLIIERLSVRALVRRWASQGRLDRRTVIVGADANGAKLIEALKAEHADASDIRILGVFDDRNDARSQSTCAGVPKLGKVDDIPEFARRTRVDLVLFALPISAETRILDMLKKLWVLPVDIRLSAHTNKLRFRPRAYSYVGKVPTLDVFEAPITDWDQVIKQVFDRVVGGFILLLAAPVMALVALAIKLDSPGPVLFRQKRFGFNNERIDVLKFRSMYHDQADPTASKVVTRNDPRVTRVGRFIRRTSLDELPQLFNVVFKGNLSLVGPRPHAVQGKLQSQLFDEAVDGYFARHRVKPGITGWAQINGWRGEIDNEEKIQKRVEFDLYYIENWSVLFDLYILLRTPWALLKGENAY	failed
MVTNQKHLEDFGYLKMTQKEGTILPEEYVSIIQHPKGGPKSVTLRENKVSGLKENFIHYLTDTEPGSSGSPVFNDQWTLVALHHSGVPNPEIKDLEHHHHHH	not failed
MVFCGDDVATGVRDAITYCYRCKGRKVTLSDHEADDDNKPIGDFDYDHEVVVFEIRSRAMEKLRKKRRTGMEGLTYKFVKEYDIENEFCSVRSSFSECCMSDISIEGYMTAKTEFSRSSSLKGLELENQWKMHYVNEIKKGSVIQEFCHCQGWPFGLGRKAALLPPLPKSPAESWSWRKPTRVTPVPFV	failed
MSDLITLAQLSQGYRYNSDSLILADFILKQGIKGAVFDVGAGCGIIGILLKKNIANLSLSLIDIQKENIELIEKNLKSNKIQGDIFHDDFNQFQIIKKFDFIVCNPPFYRQGAYKSEDQHKAISKFQEFLPLHSFLAKTNSMLKPNGTLYFCYEALALDEICFILKDMKMKITKLCFVHTHQSKKARLVLIQVKKGSKSPCEILPPFFVYENEILSKQMQEIHLRFRLKSYDI	failed
MDATISVVCYKSKTLSNGEHPLMLRISKDGKKKYQSLGISVNPKFWDFQKNKPKPKCPNLEYLQKIILDKKLELQKKMLEIKSDQKEYSAATLIEANEKLQVAKNVDCFYKEIIAQCEINNKCGNRLVYLNSYNSLKRFTNGKLEIPFNTINVAWLEKYEKWLRSNGNKETTISLMFRTLRSTYNKAIKERCAHLSDYPFQEYKISKFDTSTQKRAIAKTDMLKFTETSQPIGQKKYVELSKDIFIFSYLCGGINFTDIANLTQENIVNGRLHYIRQKTGKLIKIGIPQEAMQIIKKYTDESNGYLFPILNVKVHKTALQKQNRIHKIRGKVNDILKTLGKRLGIEANITTYVARHSFASVLKKSGVNIALISEALGHSDLATTQIYLDSFDNEQVDEAMKNLL	failed
MNPLDLIAKRAYPYETEKRDKTYLALNENPFPFPEDLVDEVFRRLNSDALRIYYDSPDEELIEKILSYLDTDFLSKNNVSVGNGADEIIYVMMLMFDRSVFFPPTYSCYRIFAKAVGAKFLEVPLTKDLRIPEVNVGEGDVVFIPNPNNPTGHVFEREEIERILKTGAFVALDEAYYEFHGESYVDFLKKYENLAVIRTFSKAFSLAAQRVGYVVASEKFIDAYNRVRLPFNVSYVSQMFAKVALDHREIFEERTKFIVEERERMKSALREMGYRITDSRGNFVFVFMEKEEKERLLEHLRTKNVAVRSFREGVRITIGKREENDMILRELEVFK	not failed
KERILSSERLAKIMMSELGDKRQEHLIAIYLDTQNRVIKKQVIFIGSVRRSVAEPREILHYACKSMATSLIIVHNHPSGSTYPSENDLRFTEKIKRSCDDLGIVFLDHIIVGKKEYYSFREETDLV	not failed
SGHFSALPSLPVGSHAKVSSPQPRGPRYAEGTFISDYSIAMDKIHQQDFVNWLLAQKGKKNDWKHNITQREARALELASQANRKEEEAVEPQSSPAKNPSDEDLLRDLLIQELLACLLDQTNLCRLRSR	failed
KPQEGIGARCRRALKDLPLTNLSRLLQCELAEGKALRWGADSLEPAAVVGLNSLGSLVWAPGQPSRWPVPLLLLGGTLDLITPPLDEQLGVFSALASHPSSRVVVVEGASHFSPIRVGEPMA	failed
MGYKDEIGVIGIDDAPFNKFDKEALIVGTYMRGNKLVDEISFKKIEKDGFDSTEKILKIVKDKHFTKINAIFLDGVTFGGFNIADIVKIYNETKIPVIAVMEKEPDLLKMKSALKKYFFDFPEKIEMLESFPKPEPFENIFIQCIGISFEDACKLIKKTRLRSKIPECLRISHLVGRGFLNME	failed
GEERKSSSWGRVDAMELPNYSRQLLQQLYTLCKEQQFCDCTISIGTIYFRAHKLVLAAASLLFKTLLDNTDTISIDASVVSPEEFALLLEMMYTGKLPVGKHNFSKIISLADSLQMFDVAVSCKNLLTSLVNCSVQGQVVRDVSAPSSETFRKEPEKPQVEILSSEGAGEPHSSPELAATPGGPVKAETEEAAHSVSQEMSVNSPTAQESQRNAETPAETPTTAEACSPSPPVQTFSEAKKTSTEPGCERKHYQLNFLLENEGVFSDALMVTQDVLKKLEMCSEIKGPQKEMIVKCFEGEGGHSAFQRILGKVREESLDVQTVVSLLRLYQYSNPAVKTALLDRKPEDVDTVQPKGSTEEGKTLSVLLLEHKEDLIQCVTQLRPIMESLETAKEEFLTGTEKRVILNCCEGRTPKETIENLLHRMTEEKTLTAEGLVKLLQAVKTTFPNLGLLLEKLQKSATLPSTTVQPSPDDYGTELLRRYHENLSEIFTDNQILLKMISHMTSLAPGEREVMEKLVKRDSGSGGFNSLISAVLEKQTLSATAIWQLLLVVQETKTCPLDLLMEEIRREPGADAFFRAVTTPEHATLETILRHNQLILEAIQQKIECKLFTSEEEHLAETVKEILSIPSETASPEASLRAVLSRAMEKSVPAIEICHLLCSVHKSFPGLQPVMQELAYIGVLTKEDGEKETWKVSNKFHLEANNKEDEKAAKEDSQPGEQNDQGETGSLPGQQEKEASASPDPAKKSFICKACDKSFHFYCRLKVHMKRCRVAKSKQVQCKECSETKDSKKELDKHQLEAHGAGGEPDAPKKKKKRLPVTCDLCGREFAHASGMQYHKLTEHFDEKPFSCEECGAKFAANSTLKNHLRLHTGDRPFMCKHCLMTFTQASALAYHTKKKHSEGKMYACQYCDAVFAQSIELSRHVRTHTGDKPYVCRDCGKGFRQANGLSIHLHTFHNIEDPYDCKKCRMSFPTLQDHRKHIHEVHSKEYHPCPTCGKIFSAPSMLERHMVTHVGGKPFSCGICNKAYQQLSGLWYHNRTHHPDVFAAQNHRSSKFSSLQCSSCDKTFPNTIEHKKHIKAEHADMKFHECDQCKELFPTPALLQVHVKCQHSGSQPFRCLYCAATFRFPGALQHHVTTEHFKQSETTFPCELCGELFTSQAQLDSHLESEHPKVMSTETQAAASQMAQVIQTPEPVAPTEQVITLEETQLAGSQVFVTLPDSQASQASSELVAVTVEDLLDGTVTLICGEAK	not failed
